Test results published in patent US9539315B2, “Methods, agents and peptides for inhibiting matrix metalloproteinase-2 signaling” (New York University, priority 2011, dated 2017).
Entries after “also recorded” stand apart in the source; their conditions may differ.

How the values were obtained:
Format in all cases: cell-based, human
OX40L = OX40L expression on DCs (staining); conditions: DCs exposed for 2 days, stained for OX40L
Procedure: (§1) A) DCs were exposed to MMP-2 […] or zymosan […], a known activator of NF-κB that acts via TLR2, for the indicated time. Cytosolic and nuclear fractions were isolated and p50 contents were measured by ELISA. […] C) OX40L over-expression on DCs induced by MMP-2 is inhibited by an inhibitor of NEMO, the NEMO binding domain (NBD) peptide, but not by the corresponding negative control, a NBD mutant.
A) DCs were exposed to various TLR agonists for 2 days before cells were stained for OX40L. […] B) TLR2-transfected and engineered HEK cells were incubated with MMP-2 (5 mg/ml) or various controls. All conditions were also tested in the presence of a blocking antibody for TLR2. TNFα was used to activate NF-κB in a TLR-independent manner. Twenty hours later, NF-κB activation was measured.
Antibody to OX40L (11C3.1) was from Biolegend. Blocking antibodies to TLR-2 and TLR-6 were from Invivogen. Antibodies to GATA-3, IL-4 (8D4-8), IL-5 (JES1-39D10), IL-13 (JES10-5A2), TNFα (MAb11), IFNγ (25723.11), perforin (δG9), GranzymeB (GB11), CD40 (5C3), CD80 (L307.4), CD83 (HB15e), CD86 (IT2.2), HLA-DR (TU36), fluorescein isothiocyanate-conjugated antibodies to CD45RA (HI100) and CD45RO (UCHL1), and antibody to CD4 (RPA-T4) were purchased from BD Biosciences Pharmingen. Alexa fluor 488-conjugated antibody to IL-17 (eBio64DEC17), phycoerythrine-conjugated antibody to T-bet (4B10).
(§2) PBMCs were purified from healthy-(HD) or cord blood- (CB) donors and plated at 40×10^6 cells/10 mL/dish in complete IMDM with 5% PHS. Cells were allowed to adhere for 2 h at 37° C. Non-adherent cells were removed. The monocyte-enriched fraction was supplemented with 100 UI/mL rhGMCSF and 300 UI/mL rhIL-4 (R&D Systems) on days 0, 2 and 4. Immature DCs were harvested on day 5 and matured using poly(I:C) at 5 μg/mL/10^6 DCs (Amersham). Secretion of IL-12p70, TNFα, IL-1β, IL-6, IL-8 and IL-10 was assessed on both immature and mature DCs using the Human Inflammatory Cytokine Cytometric Bead Array (BD Pharmingen).

DCs = assay: Inflammatory cytokine secretion by DCs (cytokine bead array); conditions: MMP-2 0.5 and 5 mg/ml, active or inactive; supernatants after eighteen hours
Procedure: DCs were exposed to MMP-2 (0.5 and 5 mg/ml) in various forms: active, heat-inactivated (HI), inhibited by a specific inhibitor (IMMP-2), PEX (last third of MMP-2, amino acids 445-635 of SEQ ID NO: 1), overlapping peptides (20-mer) spanning MMP-2, or controls. Eighteen hours later, supernatants were harvested and TNFα, IL-6, IL-8 and […] levels were measured by cytokine bead array.
as §2

NF-κB pathway = assay: p50 nuclear translocation / NF-κB activation in DCs (ELISA of cytosolic and nuclear fractions)
Procedure: as §1, §2
Activation of T cell clones (10,000 cells/100 μL/well), polyclonal T cell populations (100,000 cells/100 μL/well), and DCs (50,000 cells/100 μL/well) can be determined by ELISA. IFNγ (BioSource), TNFα (BioSource), IL-4 (BioSource), IFNβ (VeriKine; PBL interferon source) and MCP-3 (DuoSet; R&D Systems) contents in supernatants were measured according to the manufacturer's instructions. p50 was measured in cytosolic and nuclear fractions (fractions separated using the nuclear separation kit from Active motif) by ELISA (Active motif).

B1: matrix metalloproteinase-2 (protein)
chain: YNFFPRKPKWDKNQITYRIIGYTPDLDPETVDDAFARAFQVWSDVTPLRFSRIHDGEADIMINFGRWEHGDGYPFDGKDGLLAHAFAPGTGVGGDSHFDDDELWTLGEGQVVRVKYGNADGEYCKFPFLFNGKEYNSCTDTGRSDGFLWCSTTYNFEKDGKYGFCPHEALFTMGGNAEGQPCKFPFRFQGTSYDSCTTEGRTDGYRWCGTTEDYDRDKKYGFCPETAMSTVGGNSEGAPCVFPFTFLGNKYESCTSAGRSDGKMWCATTANYDDDRKWGFCPDQGYSLFLVAAHEFGHAMGLEHSQDPGALMAPIYTYTKNFRLSQDDIKGIQELYGASPDIDLGTGPTPTLGPVTPEICKQDIVFDGIAQIRGEIFFFKDRFIWRTVTPRDKPMGPLLVATFWPELPEKIDAVYEAPQEEKAVFFAGNEYWIYSASTLERGYPKPLTSLGLPPDVQRVDAAFNWSKNKKTYIFAGDKFWRYNEVKKKMDPGFPKLIADAWNAIPDNLDAVVDLQGGGHSYFFKGAYYLKLENQSLKSVKFGSIKSDWLGC
With B1 the “OX40L expression on DCs” value (OX40L) was “induce OX40L expression”, the “inflammatory cytokine secretion by DCs (TNFα, IL-6, IL-8, IL-1β)” value (DCs) was “secrete inflammatory cytokines; also recorded: significantly expressed” and the “p50 translocation in the nucleus” value (NF-κB pathway; DCs exposed to MMP-2 (5 μm/ml) or zymosan (10 μm/ml), p50 by ELISA) was “triggers p50 translocation in the nucleus; also recorded: induce p50 translocation in the nucleus after 30 min”. The “NF-κB activation in DCs” value (NF-κB pathway; active vs heat-inactivated MMP-2) was “NF-κB activation (FIGS. 2A, 2B and 3) at similar levels”.
